What was measured:
[1] = biological target: T1, recombinant human cardiotrophin-like cytokine factor 1 (CLCF1) (human, UniProt Q9UBD9 28-225, limits assumed); assay: ELISA: incubated with CLCF1 4 h at room temperature, complex captured on anti-mouse Fc plate, detected with rabbit anti-CLCF1
T1 construct: also called hCLCF1
T1 sequence (looked up): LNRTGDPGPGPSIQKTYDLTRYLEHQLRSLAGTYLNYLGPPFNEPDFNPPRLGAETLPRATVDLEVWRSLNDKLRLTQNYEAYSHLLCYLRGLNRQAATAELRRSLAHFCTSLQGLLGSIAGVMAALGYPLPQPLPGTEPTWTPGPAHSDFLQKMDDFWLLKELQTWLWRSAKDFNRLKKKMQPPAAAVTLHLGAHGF
Text: Then the complexes were captured using microtiter plates coated with anti-his antibody or anti-mouse Fc antibody. […] The same approach was used to characterize binding interaction with the beta receptors.

mouse CLCF1 (mCLCF1) = biological target: T2, mouse CLCF1 (mCLCF1) (mouse, UniProt Q9QZM3 28-225, limits assumed); assay: ELISA
T2 construct: also called serum CLCF1 (mouse)
T2 sequence (looked up): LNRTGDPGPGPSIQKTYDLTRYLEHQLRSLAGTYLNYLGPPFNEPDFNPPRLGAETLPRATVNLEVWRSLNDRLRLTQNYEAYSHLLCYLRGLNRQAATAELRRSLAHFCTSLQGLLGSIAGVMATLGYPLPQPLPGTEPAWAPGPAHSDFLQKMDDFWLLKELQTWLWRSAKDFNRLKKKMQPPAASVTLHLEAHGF

[2] = biological target: T3, recombinantly produced ciliary neurotrophic factor (CNTF) (UniProt P26441 1-200, limits assumed); assay: ELISA
T3 sequence (looked up): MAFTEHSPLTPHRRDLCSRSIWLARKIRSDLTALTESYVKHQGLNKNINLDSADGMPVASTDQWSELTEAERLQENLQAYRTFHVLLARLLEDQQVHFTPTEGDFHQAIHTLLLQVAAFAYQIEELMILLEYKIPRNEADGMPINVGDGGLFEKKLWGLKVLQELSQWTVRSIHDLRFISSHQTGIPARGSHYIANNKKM

binding result [1]: binds
binding result (mouse CLCF1 (mCLCF1)): binds
binding result [2]: no binding
B1: eCNTFR-Fc (soluble engineered CNTFR fused to mouse IgG2a Fc) (Fc fusion)
chain: QRHSPQEAPHVQYERLGSDVTLPCGTANWDAAVTWRVNGTDLAPDLLNGSQLVLHGLELGHSGLYACFHRDSWHLRHQVLLHVGLPPQEPVLSCRSNTYPKGFYCSWHLPTPTYIPNTFNVTVLHGSKIMVCEKDPALKNRCHIRYMHLFSPIKHNVSISVSNALGHNATAITFDEFTIVKPDPPENVVARPVPSNPRRLEVTWQTPSTWPDPEFFPLKFFLRYRPLILDQWQHVELSDGTAHTIAAAYAGKEYIIQVAAKDNEFGTWSDWSVAAHATPWTEEPRHLTTEAQAAETTTSTTSSLAPPPTTKICDPGELGSRRLEPRGPTIKPCPPCKCPAPNLLGGPSVFIFPPKIKDVLMISLSPIVTCVVVDVSEDDPDVQISWFVNNVEVHTAQTQTHREDYNSTLRVVSALPIQHQDWMSGKEFKCKVNNKDLPAPIERTISKPKGSVRAPQVYVLPPPEEEMTKKQVTLTCMVTDFMPEDIYVEWTNNGKTELNYKNTEPVLDSDGSYFMYSKLRVEKKNWVERNSYSCSVVHEGLHNHHTTKSFSRTPGK
notes: Made in HEK293; also called Fc fusion eCNTFR; engineered CLCF1 trap
